Assay results from publication PMC5921835.
Changes are numbered by the printed parent chain. Numbers in names are those of the source.

B1: sclareol synthase from Salvia sclarea (SsSS) (Salvia sclarea) (protein)
chain: AKMKENFKREDDKFPTTTTLRSEDIPSNLCIIDTLQRLGVDQFFQYEINTILDNTFRLWQEKHKVIYGNVTTHAMAFRLLRVKGYEVSSEELAPYGNQEAVSQQTNDLPMIIELYRAANERIYEEERSLEKILAWTTIFLNKQVQDNSIPDKKLHKLVEFYLRNYKGITIRLGARRNLELYDMTYYQALKSTNRFSNLCNEDFLVFAKQDFDIHEAQNQKGLQQLQRWYADCRLDTLNFGRDVVIIANYLASLIIGDHAFDYVRLAFAKTSVLVTIMDDFFDCHGSSQECDKIIELVKEWKENPDAEYGSEELEILFMALYNTVNELAERARVEQGRSVKEFLVKLWVEILSAFKIELDTWSNGTQQSFDEYISSSWLSNGSRLTGLLTMQFVGVKLSDEMLMSEECTDLARHVCMVGRLLNDVCSSEREREENIAGKSYSILLATEKDGRKVSEDEAIAEINEMVEYHWRKVLQIVYKKESILPRRCKDVFLEMAKGTFYAYGINDELTSPQQSKEDMKSFVF
B2: sclareol synthase from Salvia sclarea (SsSS) (Salvia sclarea; N431Q) (protein)
chain: B1 chain with N380Q
B3: sclareol synthase from Salvia sclarea (SsSS) (Salvia sclarea; N431I) (protein)
chain: B1 chain with N380I

Each protein was assayed on C/C(=C\COP(=O)(O)OP(=O)(O)O)CC[C@@H]1[C@@]2(C)CCCC(C)(C)[C@@H]2CC[C@@]1(C)O (assay: steady-state kinetics). Details: mean ± SE of three experiments; assay conditions only in the supplement.
Assay type: biochemical, Salvia sclarea
In the case of B1, the Km is reported as 7 ± 2 µM, the kcat is reported as 0.53 ± 0.04 s⁻¹ and the kcat/Km is reported as 76000 M⁻¹ s⁻¹.
B2 was tested, and the Km was 10 ± 1 µM, the kcat was 0.47 ± 0.02 s⁻¹ and the kcat/Km was 47000 M⁻¹ s⁻¹.
For B3, the Km was 6 ± 1 µM, the kcat was 0.38 ± 0.02 s⁻¹ and the kcat/Km was 63000 M⁻¹ s⁻¹.
